Biological target: BRCA1 protein (mouse) (mouse) (UniProt P48754)
Assay: cell-based or functional assay

Chain of UniProt P48754 (P48754 whole entry): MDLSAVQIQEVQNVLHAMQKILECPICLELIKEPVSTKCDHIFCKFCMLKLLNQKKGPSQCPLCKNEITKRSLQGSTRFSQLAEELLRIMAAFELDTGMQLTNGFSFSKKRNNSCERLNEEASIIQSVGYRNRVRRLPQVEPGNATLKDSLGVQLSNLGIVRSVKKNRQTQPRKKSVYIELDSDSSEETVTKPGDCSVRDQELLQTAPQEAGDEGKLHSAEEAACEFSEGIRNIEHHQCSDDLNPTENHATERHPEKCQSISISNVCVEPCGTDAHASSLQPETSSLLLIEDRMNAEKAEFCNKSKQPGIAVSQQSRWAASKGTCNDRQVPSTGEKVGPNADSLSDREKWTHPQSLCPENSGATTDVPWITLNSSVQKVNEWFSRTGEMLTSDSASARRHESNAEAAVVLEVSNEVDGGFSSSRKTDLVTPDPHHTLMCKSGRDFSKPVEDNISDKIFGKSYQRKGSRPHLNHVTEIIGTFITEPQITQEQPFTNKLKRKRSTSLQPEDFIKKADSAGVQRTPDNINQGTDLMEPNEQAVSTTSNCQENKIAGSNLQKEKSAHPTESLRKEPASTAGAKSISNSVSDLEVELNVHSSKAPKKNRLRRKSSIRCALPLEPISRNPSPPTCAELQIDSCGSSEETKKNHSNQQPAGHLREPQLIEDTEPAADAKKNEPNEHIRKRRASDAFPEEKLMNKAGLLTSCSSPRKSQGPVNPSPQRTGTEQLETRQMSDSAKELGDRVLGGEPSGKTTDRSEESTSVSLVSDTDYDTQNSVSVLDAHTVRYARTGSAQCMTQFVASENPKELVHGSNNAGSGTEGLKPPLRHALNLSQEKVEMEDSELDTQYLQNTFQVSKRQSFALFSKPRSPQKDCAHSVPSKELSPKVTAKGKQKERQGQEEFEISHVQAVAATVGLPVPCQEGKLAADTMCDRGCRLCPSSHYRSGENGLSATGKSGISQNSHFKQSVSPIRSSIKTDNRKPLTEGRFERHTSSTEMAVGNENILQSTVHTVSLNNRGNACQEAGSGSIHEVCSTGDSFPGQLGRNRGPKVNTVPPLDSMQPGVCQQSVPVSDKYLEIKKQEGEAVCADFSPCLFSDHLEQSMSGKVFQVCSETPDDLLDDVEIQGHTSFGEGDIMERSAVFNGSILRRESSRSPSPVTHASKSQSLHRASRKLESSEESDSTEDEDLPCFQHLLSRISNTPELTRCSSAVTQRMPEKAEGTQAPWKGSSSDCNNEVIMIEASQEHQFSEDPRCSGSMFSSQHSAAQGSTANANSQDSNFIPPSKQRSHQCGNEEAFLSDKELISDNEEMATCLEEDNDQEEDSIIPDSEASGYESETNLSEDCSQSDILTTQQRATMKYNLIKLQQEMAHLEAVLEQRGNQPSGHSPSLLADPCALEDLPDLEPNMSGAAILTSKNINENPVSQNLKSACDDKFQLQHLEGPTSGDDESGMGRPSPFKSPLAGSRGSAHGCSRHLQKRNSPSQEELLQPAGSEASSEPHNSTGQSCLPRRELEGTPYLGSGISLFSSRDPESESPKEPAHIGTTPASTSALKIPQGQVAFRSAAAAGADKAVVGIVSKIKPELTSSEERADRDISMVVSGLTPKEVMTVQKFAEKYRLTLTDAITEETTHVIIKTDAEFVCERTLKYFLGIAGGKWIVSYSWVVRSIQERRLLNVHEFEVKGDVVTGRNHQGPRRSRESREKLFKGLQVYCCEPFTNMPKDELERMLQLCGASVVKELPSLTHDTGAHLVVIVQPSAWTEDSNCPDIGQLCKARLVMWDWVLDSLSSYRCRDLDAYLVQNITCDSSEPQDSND

Work on “FANCD2 protein (mouse, on meiotic chromosomes of spermatocytes) (from UniProt Q80V62 1-1450)” yielded an anti-FANCD2 foci co-localized with regions of intense anti-BRCA1 staining (20 pachytene nuclei) of 65%.
